The test addresses Rpa1 (yeast), the large subunit of the replication protein A (RPA) complex (S. cerevisiae (endogenous in yeast …, UniProt P22336 1-621)). As to the kind of experiment: cell-based or functional assay.

Rpa1 (yeast), the large subunit of the replication protein A (RPA) complex (S. cerevisiae, sequence (P22336 whole entry, one chain of several): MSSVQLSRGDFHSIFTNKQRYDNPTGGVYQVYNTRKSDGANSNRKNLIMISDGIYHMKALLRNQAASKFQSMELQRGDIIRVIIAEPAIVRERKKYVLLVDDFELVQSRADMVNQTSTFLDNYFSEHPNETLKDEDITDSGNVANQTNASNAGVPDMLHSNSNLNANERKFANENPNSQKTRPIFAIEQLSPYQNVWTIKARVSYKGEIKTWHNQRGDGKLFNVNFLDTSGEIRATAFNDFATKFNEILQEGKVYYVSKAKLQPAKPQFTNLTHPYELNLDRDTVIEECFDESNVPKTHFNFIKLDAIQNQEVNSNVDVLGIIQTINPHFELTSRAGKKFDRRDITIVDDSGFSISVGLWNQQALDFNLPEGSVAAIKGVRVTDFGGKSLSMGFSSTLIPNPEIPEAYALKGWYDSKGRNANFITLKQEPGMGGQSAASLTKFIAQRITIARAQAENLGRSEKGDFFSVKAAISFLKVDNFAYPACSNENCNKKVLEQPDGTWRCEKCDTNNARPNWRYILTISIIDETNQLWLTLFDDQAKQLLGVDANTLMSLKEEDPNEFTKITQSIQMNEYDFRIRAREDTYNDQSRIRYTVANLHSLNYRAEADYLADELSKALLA

B1: His-Rad1 (natural protein, S. cerevisiae, UniProt P06777 1-1100, looked up)
chain: MSQLFYQGDSDDELQEELTRQTTQASQSSKIKNEDEPDDSNHLNEVENEDSKVLDDDAVLYPLIPNEPDDIETSKPNINDIRPVDIQLTLPLPFQQKVVENSLITEDALIIMGKGLGLLDIVANLLHVLATPTSINGQLKRALVLVLNAKPIDNVRIKEALEELSWFSNTGKDDDDTAVESDDELFERPFNVVTADSLSIEKRRKLYISGGILSITSRILIVDLLSGIVHPNRVTGMLVLNADSLRHNSNESFILEIYRSKNTWGFIKAFSEAPETFVMEFSPLRTKMKELRLKNVLLWPRFRVEVSSCLNATNKTSHNKVIEVKVSLTNSMSQIQFGLMECLKKCIAELSRKNPELALDWWNMENVLDINFIRSIDSVMVPNWHRISYESKQLVKDIRFLRHLLKMLVTSDAVDFFGEIQLSLDANKPSVSRKYSESPWLLVDEAQLVISYAKKRIFYKNEYTLEENPKWEQLIHILHDISHERMTNHLQGPTLVACSDNLTCLELAKVLNASNKKRGVRQVLLNKLKWYRKQREETKKLVKEVQSQDTFPENATLNVSSTFSKEQVTTKRRRTRGASQVAAVEKLRNAGTNVDMEVVFEDHKLSEEIKKGSGDDLDDGQEENAANDSKIFEIQEQENEILIDDGDAEFDNGELEYVGDLPQHITTHFNKDLWAEHCNEYEYVDRQDEILISTFKSLNDNCSLQEMMPSYIIMFEPDISFIRQIEVYKAIVKDLQPKVYFMYYGESIEEQSHLTAIKREKDAFTKLIRENANLSHHFETNEDLSHYKNLAERKLKLSKLRKSNTRNAGGQQGFHNLTQDVVIVDTREFNASLPGLLYRYGIRVIPCMLTVGDYVITPDICLERKSISDLIGSLQNNRLANQCKKMLKYYAYPTLLIEFDEGQSFSLEPFSERRNYKNKDISTVHPISSKLSQDEIQLKLAKLVLRFPTLKIIWSSSPLQTVNIILELKLGREQPDPSNAVILGTNKVRSDFNSTAKGLKDGDNESKFKRLLNVPGVSKIDYFNLRKKIKSFNKLQKLSWNEINELINDEDLTDRIYYFLRTEKEEQEQESTDENLESPGKTTDDNALHDHHNDVPEAPV
For the molecule B1, the “3′ flap cleavage by purified His-Rad1–Rad10 (200 nM) in the presence of purified yeast RPA (80 nM), in vitro endonuclease assay” value is about 2 fold.

Source of the values: article PMC5966407, “Distinct roles of XPF-ERCC1 and Rad1-Rad10-Saw1 in replication-coupled and uncoupled inter-strand crosslink repair” (Nature Communications, 2018).
